The experiment deals with synthetic horse SLN (horse). Briefly: SDS-PAGE with immunoblot.

Values joined by “and” are separate entries in the source; they are usually repeats but may differ in a detail not shown here. Identical values can stand only once.

Regarding synthetic horse SLN (peptide), the stoichiometry N is 2 and 3.

The record behind these values is article doi:10.1101/688531.
